In patent publication US20160304856A1 (AVANTGEN, published 2016):

Biological target: T1, Prostate-Specific Antigen (PSA) (human, UniProt P07288 25-261)
T1 construct: Used biotinylated or PE-labelled in flow cytometry and coated on plates in ELISA; also called PSA antigen
Test: method and antibody format not stated

T1 sequence (P07288 25-261 limits assumed): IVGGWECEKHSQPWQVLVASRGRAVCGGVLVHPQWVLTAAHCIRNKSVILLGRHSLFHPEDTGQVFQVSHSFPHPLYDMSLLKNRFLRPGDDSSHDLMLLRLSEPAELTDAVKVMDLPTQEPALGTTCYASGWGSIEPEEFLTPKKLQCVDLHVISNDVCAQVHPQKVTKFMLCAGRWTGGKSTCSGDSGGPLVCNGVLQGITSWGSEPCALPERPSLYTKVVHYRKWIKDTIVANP

- Kd: 0.08 nM
B1: novel anti-PSA antibody (antibody, V domains shown)
VH: EVQLLESGGGLVQPGGSLRLSCAASGFTVSNYAMSWVRQAPGKGLEWVGDIYPTSGYTDYADSVKGRFTISRDNSKNTLYLQMNSLRAEDTAVYYCARWGYDYKYVASEGSWLFDYWGQGTLVTVSS
VL: DIQMTQSPSSLSASVGDRVTITCRASQVSSTSLNWYQQKPGKAPKLLIYGASNLASGVPSRFSGSGSGTDFTLTISSLQPEDFATYYCQQYGHPPYTFGQGTKVEIK
notes: Identified from a single chain library
